Earlier results, collected in PMC8469563.

Target: C1q (Homo sapiens) (UniProt P02745)
Sequence of UniProt P02745 (P02745 23-245, chain 1 of 3): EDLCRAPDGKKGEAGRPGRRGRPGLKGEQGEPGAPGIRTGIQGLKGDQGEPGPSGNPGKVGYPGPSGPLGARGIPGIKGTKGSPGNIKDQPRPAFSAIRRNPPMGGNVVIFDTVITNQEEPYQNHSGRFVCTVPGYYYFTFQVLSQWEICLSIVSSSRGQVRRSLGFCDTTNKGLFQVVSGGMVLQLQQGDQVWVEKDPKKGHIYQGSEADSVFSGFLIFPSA
Sequence of UniProt P02745 (P02746 28-253, chain 2 of 3, further chain): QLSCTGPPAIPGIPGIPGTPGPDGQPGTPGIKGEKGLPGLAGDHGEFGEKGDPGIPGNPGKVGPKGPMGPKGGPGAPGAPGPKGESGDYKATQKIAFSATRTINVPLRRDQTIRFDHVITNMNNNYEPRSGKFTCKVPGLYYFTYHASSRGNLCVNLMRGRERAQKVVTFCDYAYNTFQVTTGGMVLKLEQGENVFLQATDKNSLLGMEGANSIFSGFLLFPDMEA
Sequence of UniProt P02745 (P02747 29-245, chain 3 of 3, further chain): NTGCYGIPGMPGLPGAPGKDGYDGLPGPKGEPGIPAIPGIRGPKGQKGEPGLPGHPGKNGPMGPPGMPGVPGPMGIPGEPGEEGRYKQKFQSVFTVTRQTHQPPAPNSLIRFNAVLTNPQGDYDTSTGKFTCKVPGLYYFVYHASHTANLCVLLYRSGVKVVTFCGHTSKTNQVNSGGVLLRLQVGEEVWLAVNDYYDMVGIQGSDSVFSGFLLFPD

Kd: 200 nM
Substance: HMGB1 (from UniProt P09429)
